The RNAGym collection of RNA variant scans (doi:10.1073/pnas.2313332121)
Fewer inactive variants are shown than the library holds.

B1: TPR 5TU (parent)
chain: GGAUCUUCUCGAUCUAACAAAAAAGACAAAUCUGCCACAAAGCUUGAGAGCAUCUUCGGAUGCAGAGGCGGCAGCCUUCGGUGGCGCGAUAGCGCCAACGUUCUCAACUAUGACACGCAAAACGCGUGCUCCGUUGAAUGGAGUUUAUCAUG

Variants of: B1
Experiment: polymerase ribozyme fitness, log enrichment relative to wild type (log ratio); higher = more active; in vitro selection for triplet polymerase activity
Summary of the method: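 Fitness is a logarithmic measure of how a genotype enriched relative to the wild type, with replicate averages weighted by inverse variance. The logarithm uses base 2, and enrichment came from Illumina sequencing of input and output libraries. Those libraries were PCR-built, transcribed mutants of each subunit of a heterodimeric triplet polymerase ribozyme, passed through one triplicate in vitro selection round that included frozen incubation at −7 °C, gel excision of extended constructs and streptavidin-bead capture. Genotypes were kept only if they had ≥10 input reads and ≥1 read per output.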

Row | Variant | polymerase ribozyme fitness (log ratio)
1 | U61G G88C | ≤ -4.2
2 | U61A C87U A147C | -3.49
3 | U61A A150G | -1.15
4 | U61A U102C | -2.2
5 | A60G C96A | -0.165
6 | G62U A73C G94C | ≤ -4.2
7 | G62A C76U | -1.26
8 | G59U G88U G94U U102G A147G | ≤ -4.2
9 | U61G C125A | -1.26
10 | U61A A89C A106C U148A | ≤ -4.2
11 | U61A A64C G68U G86C | ≤ -4.2
12 | A60U G94C | -1.12
13 | U61A G84A U134A | -3.68
14 | G62U C103U | -0.754
15 | C63A C85U | -0.129
16 | G62C G67C U134C A147G | ≤ -4.2
17 | A60C U82A | -1.28
18 | A60U U61C | ≤ -4.2
19 | A60U C116U G141A | -0.772
20 | A60G G88U A97U A107G C114U | ≤ -4.2
21 | U61A U101A | -1.08

Row | Variant | polymerase ribozyme fitness (log ratio)
22 | U61A U102C U111G A115G C123A U139G | ≤ -4.2
23 | A60G C72U G143U | -3.39
24 | U61A C105G A121U | ≤ -4.2
25 | A60G G83C | -0.826
26 | A60G G83A | -1.4
27 | A60G U104G | 0.24
28 | G62A G65A A66C U77C U135C U145G | ≤ -4.2
29 | U61G G67A G68U C87A A107U G126C C149G | ≤ -4.2
30 | A60G U101A G141U A147C | -4.13
31 | C63U C72U C105A | -3.97
32 | G62A C75G C96A | ≤ -4.2
33 | U61A U146C | -0.489
34 | G59U G80A C85A | -0.927
35 | A60G U102C | 0.0901
36 | U61A U77G C85U C125A | ≤ -4.2
37 | A60U G92U A107C | ≤ -4.2
38 | A60G C99G U102A U144G | ≤ -4.2
39 | C63A G84A A121C A142U U145A A150C | ≤ -4.2
40 | U61G C105U A115G A147C G152U | ≤ -4.2
41 | A60U A98U | -0.598
42 | G62A G92A C116U | -2.52

Row | Variant | polymerase ribozyme fitness (log ratio)
43 | U61A A106U | -2.41
44 | U61A G86A | -2.67
45 | A60G A120G G128C A142G | -2.95
46 | U61A C149U | -1.63
47 | G59U C129G | -2.56
48 | G59U C96U A98U | -0.711
49 | G59U C96G G133C A137C | ≤ -4.2
50 | C63G C125G U145C A150C | ≤ -4.2
51 | C63U C79U G88C U90G C95A C99U A107U | ≤ -4.2
52 | G62A C85U A115U G141U | -1.19
53 | U61A C118G | -1.89
54 | G59U C79A G86A A89G A122G G141C | ≤ -4.2
55 | C63G A73G G94A G136A | -0.0432
56 | A60C G71U G92C C108G G117A G124U A137C | -4.08
57 | U61C | -1.79
58 | U61A | -1.18
59 | U61G | -1.25
60 | G62C C85G | -3.23
61 | G62C G74A G83A C125A U139G G140A | ≤ -4.2
62 | C63A G70A G84A | ≤ -4.2
63 | U61A C99U | -2.69

Row | Variant | polymerase ribozyme fitness (log ratio)
64 | U61C C85U | -2.66
65 | A60U C93U C125U | -2.48
66 | A60C C99A A113G U127G | ≤ -4.2
67 | G59U G84A U104C | -0.647
68 | G62C A64G G83C U102G C114U U127G | ≤ -4.2
69 | A60G C69U A122C U135C | -3.94
70 | C63A C85G U134A | -4.18
71 | U61C G81A | -2.36
72 | C63G G68U G71A U78G C85G G100A G141U | ≤ -4.2
73 | U61G C75U G92A C149A | ≤ -4.2
74 | G59U G94C C99A G128C C129U U130C G140U | ≤ -4.2
75 | G62U C76U C85G | -2.1
76 | U61A C69A G86U G117C A119G | -3.92
77 | A60C G68A C95A C96G U134G U139G | ≤ -4.2
78 | G59U C87U | -0.949
79 | A60U C129G | -3.43
80 | A60U G141A | -0.304
81 | A60U G141C | -1.16
82 | C63G C87U C129G U139C G143U | ≤ -4.2
83 | C63A U144C U145A | -2.97
84 | A60C G81U C87U | -2.07
